Results as given in the supplement of paper PMC10126150.
± gives the standard deviation of the averaged measurements.

System: ATP
Test: switch fluorescence ratio, 500 uM ATP over buffer (Cy3 cluster intensity, sum of 5 cycles each) (fold (ratio)); higher = stronger signal-on switching upon ATP binding; sequences stand for … in TCGTCGGCAGCGTCAGATGTGTATAAGAGACAGTTTTTTTTTTTTTTTTTTTTTTTTT…TC
Settings: aptamer strand: ATP DNA aptamer (quencher-CACCTGGGGGAGTATTGCGGAGGAAGG + anchor), 100 nM annealed; ATP concentration: 500 uM
Outline: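 Values give the fluorescence ratio for each switch-domain sequence, averaged from per-cluster ratios of summed target-cycle to summed buffer-cycle Cy3 intensity. The Cy3-labelled switching-strand clusters sat on a modified Illumina MiSeq flow-cell, were annealed to 100 nM quencher-labelled ATP aptamer, and were imaged in selection buffer, then after 15 min with 500 uM ATP at 22 °C. Five cycles ran with NaOH stripping and re-annealing between them, and clusters outside 100-1000 RFU were excluded.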
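Also: ATP exposure 15 min at 22 °C before imaging.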

Sequence | switch fluorescence ratio
TCCCGGCAGA | 0.997 ± 0.013
TCCCGGGAAA | 1.04 ± 0.082
TCCCGTTATT | 1.01 ± 0.025
TCCCTACGAT | 1.06 ± 0.016
TCCCTTGGGT | 1 ± 0.0092
TCCCTTTCGA | 1.21 ± 0.063
TCCGACTCG | 1.09 ± 0.041
TCCGAGCCTT | 2.08 ± 0.12
TCCGAGGGGT | 1.67 ± 0.91
TCCGAGTTGG | 1.05 ± 0.023
TCCGATTATG | 1.0175 ± 0.00092
TCCGCGGAG | 1.15 ± 0.13
TCCGCTTGAG | 1.36 ± 0.016
TCCGGAGAAT | 1.79 ± 1.1
TCCGGGGCAA | 3.73 ± 2
TCCGGGGCGG | 1.11 ± 0.06
TCCGGGGTCG | 1.034 ± 0.0062
TCCGGGGTGT | 1.26 ± 0.44
TCCGGGTTGT | 1.04 ± 0.056
TCCGGTAGTT | 1.06 ± 0.013
TCCGGTCAGC | 1.13 ± 0.15
TCCGTAAACG | 1.09 ± 0.041
TCCGTAGTGT | 2.12 ± 0.37
TCCGTCCCCG | 1.35 ± 0.058
TCCGTCGCAA | 2.23 ± 0.41

Sequence | switch fluorescence ratio
TCCGTCGGGG | 1.01 ± 0.033
TCCGTGGGGA | 1.16 ± 0.25
TCCGTTGATA | 1.165 ± 0.01
TCCGTTGCGG | 1.03 ± 0.034
TCCGTTGGCT | 1.07 ± 0.062
TCCGTTTCTG | 0.971 ± 0.018
TCCTAACTTG | 1.01 ± 0.014
TCCTAAGGGC | 1.04 ± 0.038
TCCTAAGGGG | 1.79 ± 1
TCCTACTGGG | 1.04 ± 0.028
TCCTCAAATG | 1.607 ± 0.002
TCCTCAGGTG | 4.07 ± 0.33
TCCTCAGTGC | 1.93 ± 0.13
TCCTCATTTG | 1.005 ± 0.0078
TCCTCGAGCT | 1.82 ± 1.2
TCCTCTTAAG | 1.09 ± 0.03
TCCTGAATGA | 1 ± 0.03
TCCTGAGGCG | 1.02 ± 0.022
TCCTGATTTT | 1.02 ± 0.037
TCCTGCTCCG | 1.56 ± 0.13
TCCTGCTGTT | 0.998 ± 0.02
TCCTGGGGTC | 1.05 ± 0.043
TCCTGGTGCG | 1.13 ± 0.024
TCCTGTTACA | 1.03 ± 0.017
TCCTTGATCC | 1.02 ± 0.089

Sequence | switch fluorescence ratio
TCCTTGATTG | 0.974 ± 0.057
TCCTTGGCTT | 1.47 ± 0.49
TCCTTGGGGA | 1.08 ± 0.086
TCCTTGTGGT | 0.973 ± 0.037
TCCTTTGGAT | 1.05 ± 0.049
TCCTTTGTAT | 1.1 ± 0.015
TCCTTTTAAC | 1.25 ± 0.085
TCGAAATATT | 1.55 ± 0.81
TCGAACGTTT | 1.324 ± 0.0088
TCGAAGAGTT | 0.994 ± 0.033
TCGAAGGGCG | 1.021 ± 0.0057
TCGAATGGCC | 0.994 ± 0.024
TCGACCGATT | 1.03 ± 0.037
TCGACGGGAT | 2.42 ± 0.31
TCGAGAAGGT | 0.993 ± 0.054
TCGAGAGAGG | 1.01 ± 0.049
TCGAGATCCG | 0.996 ± 0.018
TCGAGCAGGG | 1.07 ± 0.055
TCGAGGCACT | 1.28 ± 0.17
TCGAGGCGGG | 1.18 ± 0.21
TCGAGGGAGG | 0.994 ± 0.075
TCGAGGGGGT | 0.986 ± 0.054
TCGAGGTATA | 2.94 ± 2.6
TCGAGTATAT | 0.981 ± 0.021
TCGAGTCGTG | 0.9922 ± 0.0054

Sequence | switch fluorescence ratio
TCGATAGGGA | 1.01 ± 0.03
TCGATGCGTG | 1.01 ± 0.011
TCGATGTTTC | 1.01 ± 0.026
TCGATTGGTG | 1.01 ± 0.013
TCGATTTGGT | 0.9749 ± 0.008
TCGATTTTTT | 1.01 ± 0.028
TCGCAGCTTG | 1.05 ± 0.029
TCGCATAGGT | 1.1 ± 0.12
TCGCCGCTTT | 1.76 ± 0.11
TCGCCGTATG | 0.999 ± 0.018
TCGCGCAGAA | 1.061 ± 0.0063
TCGCGCGGTA | 1.007 ± 0.01
TCGCGCTATT | 1.34 ± 0.39
TCGCGGGCTA | 1.04 ± 0.046
TCGCGGTCGG | 0.997 ± 0.015
TCGCGGTGGC | 1 ± 0.029
TCGCGTTTCT | 1.03 ± 0.088
TCGCGTTTTT | 0.994 ± 0.031
TCGCTAACGG | 1.07 ± 0.018
TCGCTCCTGG | 1 ± 0.046
TCGCTCTGTT | 0.991 ± 0.011
TCGCTTGCGG | 1 ± 0.032
TCGCTTGGGG | 1 ± 0.013
TCGCTTTTTG | 1.01 ± 0.027
TCGGAACTCG | 0.9824 ± 0.0063

Sequence | switch fluorescence ratio
TCGGAAGTAT | 0.9629 ± 0.0083
TCGGACGGAA | 2.17 ± 0.21
TCGGACGGGG | 1.03 ± 0.015
TCGGAGCAGG | 1.4 ± 0.058
TCGGAGGGAA | 1.03 ± 0.027
TCGGAGGGGA | 1 ± 0.02
TCGGAGGTCC | 0.958 ± 0.029
TCGGAGTCTC | 1.127 ± 0.0029
TCGGATAAGT | 1.01 ± 0.034
TCGGATTAAT | 1.05 ± 0.043
TCGGATTGGC | 0.985 ± 0.034
TCGGATTTGT | 1.01 ± 0.041
TCGGCCAGGT | 1.5 ± 0.046
TCGGCGAAGG | 1.01 ± 0.082
TCGGCGGTCT | 0.999 ± 0.025
TCGGCGGTGG | 0.963 ± 0.05
TCGGGAACGC | 1.04 ± 0.032
TCGGGAGCAG | 1.03 ± 0.054
TCGGGAGTCA | 1.011 ± 0.0091
TCGGGATCCT | 1.35 ± 0.51
TCGGGCCCGG | 1 ± 0.078
TCGGGGAGAA | 0.992 ± 0.073
TCGGGGATAT | 3.05 ± 2.9
TCGGGGATG | 1.52 ± 0.83
TCGGGGCCGA | 0.969 ± 0.01

Sequence | switch fluorescence ratio
TCGGGGCCGG | 0.964 ± 0.037
TCGGGGGAAA | 0.994 ± 0.036
TCGGGGGATA | 0.98 ± 0.039
TCGGGGGCGG | 1.02 ± 0.078
TCGGGGGGAG | 1.01 ± 0.018
TCGGGGGTAT | 1.2 ± 0.36
TCGGGGGTCA | 0.9781 ± 0.0051
TCGGGGGTTT | 1 ± 0.038
TCGGGTATCG | 0.976 ± 0.037
TCGGGTATTC | 1.06 ± 0.14
TCGGGTCCAT | 1 ± 0.026
TCGGGTGGGG | 1.01 ± 0.014
TCGGGTTGGG | 0.975 ± 0.023
TCGGGTTTTT | 1 ± 0.03
TCGGTAAATT | 1.05 ± 0.014
TCGGTACATA | 1.037 ± 0.0066
TCGGTAGTG | 0.985 ± 0.028
TCGGTATGAC | 1.07 ± 0.029
TCGGTATGTG | 1.03 ± 0.045
TCGGTCAAAT | 0.977 ± 0.011
TCGGTCACCA | 1.05 ± 0.028
TCGGTCCGTT | 0.9492 ± 0.0027
TCGGTCCTTT | 0.99 ± 0.029
TCGGTCTAAC | 1 ± 0.015
TCGGTGACGG | 1.01 ± 0.017

Sequence | switch fluorescence ratio
TCGGTGGGGC | 1.01 ± 0.019
TCGGTGGTGG | 0.997 ± 0.019
TCGGTGTCGC | 0.9621 ± 0.0031
TCGGTTAGTA | 0.9883 ± 0.0021
TCGGTTCAGC | 1.011 ± 0.0024
TCGGTTCCCG | 0.981 ± 0.018
TCGGTTTGTT | 1 ± 0.0029
TCGTAAAATT | 0.986 ± 0.026
TCGTAACACT | 1.16 ± 0.0057
TCGTAAGTAA | 1.04 ± 0.0094
TCGTAATAGT | 1.62 ± 0.068
TCGTAATGGT | 1.05 ± 0.083
TCGTACGTGG | 0.998 ± 0.016
TCGTAGAATA | 1.01 ± 0.032
TCGTAGGGGT | 0.995 ± 0.018
TCGTATTTTC | 0.994 ± 0.058
TCGTCGATTC | 1.12 ± 0.02
TCGTCGCTTT | 1.04 ± 0.026
TCGTCGTGGG | 1.02 ± 0.025
TCGTCTGCGG | 1.04 ± 0.03
TCGTGAGGTT | 1.01 ± 0.012
TCGTGAGTAG | 0.973 ± 0.017
TCGTGAGTTT | 0.996 ± 0.035
TCGTGGCGGA | 0.979 ± 0.011
TCGTGGTGGT | 0.974 ± 0.018

Sequence | switch fluorescence ratio
TCGTGTACTG | 1.041 ± 0.006
TCGTGTGGGG | 1.02 ± 0.048
TCGTGTTACT | 1.005 ± 0.008
TCGTTACCTT | 1.135 ± 0.0013
TCGTTAGGGG | 0.999 ± 0.019
TCGTTATCTT | 0.979 ± 0.013
TCGTTATGTA | 0.992 ± 0.018
TCGTTATTAA | 1 ± 0.012
TCGTTATTGT | 1.01 ± 0.021
TCGTTATTTG | 1.004 ± 0.0078
TCGTTCAGCG | 0.997 ± 0.019
TCGTTCGTAT | 0.9875 ± 0.004
TCGTTGATGC | 1.08 ± 0.08
TCGTTGATTT | 1.016 ± 0.01
TCGTTGCAGT | 1.02 ± 0.018
TCGTTGCATG | 1.01 ± 0.065
TCGTTGGACT | 1.01 ± 0.0029
TCGTTGGTGG | 0.984 ± 0.06
TCGTTGTTTT | 1.0216 ± 0.00093
TCGTTTAACA | 0.9602 ± 0.0092
TCGTTTATAT | 1.01 ± 0.04
TCGTTTGGTA | 0.958 ± 0.027
TCGTTTGGTC | 0.986 ± 0.01
TCGTTTGGTT | 1.04 ± 0.026
TCGTTTTGCC | 0.956 ± 0.02
